± gives the uncertainty stated by the source.
test: amyloid nucleation score (Sup35N fusion, yeast selection) (log enrichment); library NNK1; higher = more nucleation; inactive = no reads after selection
How it was run: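 After 24 hours of induction with 100 μM copper sulfate, psi-negative yeast expressing peptides of 20 random codons fused to Sup35N were grown for 7 days at 30°C on medium lacking adenine and uracil. Input and output plasmid inserts were sequenced with Illumina, and sequences with under 100 input reads were discarded. Scores for nucleation are the DiMSum log enrichment of output over input reads, centred on the mode score of non-aggregating sequences.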

Substance | amyloid nucleation score
DSVVFSWVTYNTSSLSYHCG | 2.41 ± 0.2
FGANHCKRSNGK | 0.233 ± 0.22
KNKVTFKVG | 0.22 ± 0.3
MTVKSAPK | 0.258 ± 0.55
CASMMPDSVSVRTKSNVT | -1.02 ± 1.3
GSIQDVIRLAIDVGRAALTE | 0.684 ± 0.55
LLDGYSLDNIGLEVGNASSN | 0.53 ± 0.41
FCMTMRSARCGHLSMYCCFQ | 1.8 ± 0.4
SNCERAIAKSHLVARPFSVS | 0.16 ± 0.73
ACDVNSCVHCMSTVKFFPRP | 4.2 ± 0.11
VSTVLARSVWLWDTPFLRSE | -0.079 ± 0.34
VGGGSRWDIRDNSNQSIIPM | -0.338 ± 0.34
VWKDRPEMYSCGHCIEMRAE | 0.039 ± 0.37
IWDSVLF | 1.57 ± 0.33
LASGNILAICWTRSEGSDTL | -0.313 ± 1.1
WLWINPMEVDYGVLTRLEKT | -0.213 ± 0.26
IMRYLGVKKVE | -0.245 ± 0.4
YVTVEIMGYVTKVVTITLW | -0.419 ± 0.44
CLFNEALINANHLNNINWML | -0.361 ± 0.66
FIRLLGSMV | 0.622 ± 0.84
IWSSVQEFLGCMFWVIRINH | 1.77 ± 0.45
RCVAPAV | 0.151 ± 0.56
LMYSVS | 0.434 ± 0.38
CLFLWVTSVL | 1.19 ± 0.57
VRWDPVRRIWFALR | inactive

Substance | amyloid nucleation score
VKRGHNGGSAITISLDLYLF | 5.11 ± 0.069
LKLCKVRMQTLLNDVGTSCP | 0.025 ± 0.4
RVGESVI | 0.348 ± 0.55
EDTWVLLSHYHFNSMLSLLM | 0.161 ± 0.26
QHYMQVIDLGSWWSSWVYFI | -0.005 ± 0.97
VITFITSL | 3.85 ± 0.064
NISDTIC | 0.474 ± 0.85
LEVVHRVLCTFCLFDSLMVY | 1.78 ± 0.26
QRNHWLYGVTLMPCSHICIL | 7.594 ± 0.053
EYGVGDKVIWDDMI | -0.151 ± 0.27
TWNKCKVADSLFMTRIIMVL | 0.305 ± 0.41
AANSPELVGFSGGPKGCSRG | -0.137 ± 0.71
SLEWFSRWSN | 1.15 ± 0.37
CLTMWIV | -0.285 ± 0.68
CPSIILPFVYRNGSVTMVPF | 0.927 ± 0.2
GSSDPHVLVN | 0.341 ± 0.26
VFIVELNFMLRN | 4.69 ± 0.055
ATSLSCKSKFPMTDVAHLHH | 0.406 ± 0.2
QGINLVY | -0.342 ± 0.38
GKPVDRLS | 0.066 ± 0.28
SWDVAYVSMF | 0.124 ± 0.6
ASWTHVIFTYPLGKA | 0.035 ± 1
KAPCDFSGFCRCRVTGPSHC | 0.412 ± 0.33
RTKLVEHSMFCNGGEKRHTP | 0.574 ± 0.56
ADEVMKRRQLLINIVEYFMK | 0.2 ± 0.38

Substance | amyloid nucleation score
AYLVFDGQ | -0.283 ± 0.37
KLDNCGCGRGCEQLDVVQSQ | 0.044 ± 0.53
QNRLS | 2.28 ± 0.61
SFAADLFPRLVKACYSGILM | -0.413 ± 1.5
RFEKTWHWSAIAGRQGGGIF | -0.697 ± 0.88
RNVLWMILMYRCRSGGLCNG | 0.737 ± 0.52
DYFIVGTSVGGDSVTLDNQM | 0.042 ± 0.34
VAEEYSN | inactive
FNFMVNRLMVKVGLVSWRQY | 0.029 ± 1.6
PPFDSDKA | 0.335 ± 0.77
NMVSCGDALR | -0.554 ± 1.7
LSRLCGSRLLVRVVWRHYRG | -0.21 ± 0.28
ITLIGQHRFLLVFSTNQLNH | 0.46 ± 0.3
PNYHGVRGM | -0.086 ± 1.2
WGTVYVPV | 1.72 ± 0.49
WFGDGSCKRWLWGMKVTPED | -0.518 ± 0.69
VFKESGSRGFVMYTGILSCQ | 0.507 ± 0.68
NGHHALLYMPFAQTC | -0.745 ± 1.2
CREVAKFGKLSNRQSRGCAI | -0.951 ± 1.4
LGFPMRSVGQI | inactive
ILFMLECGMSTTSCHKIRVC | -0.157 ± 0.36
YLTGVYNWGMCKTCFPRDWG | 2.65 ± 0.096
TLHTKSGLNIMARYPMAERG | 1.31 ± 0.8
WWGRGVLVWYGCRAKVWTS | 0.012 ± 1.6
RNYFCIMYRYRCCKV | 4.23 ± 0.085

Substance | amyloid nucleation score
NAFQRV | 0.6 ± 0.72
DTVSLWLPARMTNDNFQDLS | 0.399 ± 0.22
SVQDFPDTSNNLASYVPSSW | -0.292 ± 0.74
PYSSDAKMCHLLETASNLLV | 0.577 ± 0.56
MMRTWGLFRVGRWESWRPVR | 0.26 ± 0.78
SKTVVTKVKLSIWAGRVLRF | -1.14 ± 1.9
FCARGRNRPN | 1.04 ± 0.5
LYIRSIACGSSLLFLAVLNC | -0.856 ± 1.1
YPNHGLLRQ | 0.166 ± 0.43
AGVIDT | 0.171 ± 0.79
LGYVIYFVFWRRHSFSYSAC | -0.407 ± 0.31
WGNLASRLQALDQVRRSGSM | -0.56 ± 0.57
YPSDLLDIWDDWICWCWELN | 0.225 ± 0.53
GDSMV | -0.606 ± 0.4
KGHSANVYTAPLLCNNCHFF | 6.703 ± 0.059
RVTFLWLCLYQGMVALVNSP | -0.156 ± 0.84
VITVRLFILW | -0.213 ± 0.43
VVNLWTQADIMRSSCRLKHV | 0.074 ± 0.19
RFFFGYAK | 2.02 ± 0.2
LNSRHVNSYF | 0.869 ± 0.48
MALLRLDIITFRNESCSEPN | -0.046 ± 0.26
LLYVRVHCLTAGFADSEASI | -0.168 ± 0.4
IENDGMSRAFC | 0.635 ± 0.67
EYIMYYWIRIVYFVINGYLV | 0.534 ± 0.36
HDKYTLIGPRH | -1.27 ± 1.2

Substance | amyloid nucleation score
IMLQCYIVFCFRGRSLIRKA | -0.524 ± 0.36
FRWPSLLGNLLKLGVDTAD | -0.126 ± 0.38
RQGPGRLHSTCKTL | -0.257 ± 1.4
WVLVSVH | 0.211 ± 0.24
CFNVSVSGEDSFLFGYGWHI | 0.159 ± 0.66
GTFAWGHRFYVIAAYFILYD | inactive
DLKALCCDRMKVLGFVRSPG | 1.18 ± 0.42
SVKSIRCLCSVVEYKETGHR | 0.438 ± 0.34
LCDSPSKYNGPEYSMYVNLN | 1.51 ± 0.7
SCGNNYTSV | -0.236 ± 0.2
FFLMQYILYYKKQSDMFVSL | -0.912 ± 1.7
FPNVDNNV | inactive
DVGGCHVVTGFERNVKGDLL | 1.44 ± 0.78
LLGRYNLLYIGMFRATRGGC | -0.094 ± 1.5
HTPLNRC | -0.469 ± 1.4
NSSYTCPNFRHTFCRYICYA | 0.533 ± 0.27
WVCRSISPLVRTSLPRYWRN | inactive
QMGCAYEDARRSHDFKCCFG | 0.013 ± 0.42
CSSWVMGLIFWECLKNMDKV | -1.39 ± 1.3
YWFDYINPLMRSFAHATAIS | 0.74 ± 0.9
CGWNFTVIHFSLDSVSHLLY | -0.568 ± 0.66
VGRFLSYGRWLA | -0.393 ± 0.42
VTSYFKIRLCFPRGMASCTR | 3.37 ± 0.19
FKEFTAIDKSRSVLLNLEPD | inactive
TSGLENVSIVNGLPGLDSLV | 0.11 ± 0.99

Substance | amyloid nucleation score
EFWGVSLLVFVFCELIGIFC | -0.479 ± 0.38
LCCKVLLALSAPGQFSVHNA | -0.621 ± 1.4
DAGGYLQEIARTPFTVARQQ | 0.195 ± 0.35
HFGDGILLI | -1.21 ± 1.7
QDCARH | inactive
VKMFMD | 0.644 ± 0.59
WNSLSWRVRMRGDNQYRRGR | 0.675 ± 1
TYRDKNNVRFKRFLGKRTAC | -1.22 ± 0.99
QRECWMYMMFMGYHLLEAQV | 0.215 ± 1.2
FRFAMRYFRGIYELRNENRR | inactive
FGNRELFLYFVCVKRDILVG | -1.23 ± 0.64
VTKLNMILMVGTVYGSNIGV | 6.782 ± 0.05
YGCDGDVFRLIVWDVIAPSE | 0.044 ± 0.34
FELGLNCCFLGLVVYAQVNA | inactive
GKKTRRLYVKWSSSFLNWMK | 0.28 ± 0.85
YQKDWFDMHEYYRPM | 1.42 ± 0.64
YMQGDYM | inactive
IACFFQT | 1.66 ± 0.21
RRARFFFRGYY | 6.12 ± 0.078
HVLKGGRAAFVELRGKSHGL | -0.081 ± 0.96
RVGAPFNLVRSCSGATLCEV | -0.023 ± 0.63
LMAHSGSAP | 3.3 ± 0.19
SIDVSDSSRDGYSDMWSKCK | -0.164 ± 0.24
RLFLSLLMKSRTIMRRKGLV | 2.54 ± 0.15
WTISSKGFFCWINCGLLQKR | 5.704 ± 0.05

Substance | amyloid nucleation score
PLCLNRVMISAMGVRVR | -0.285 ± 0.73
FVGIQHRMSYWLCGRHAIVI | 0.965 ± 0.71
QRGMTIL | 0.109 ± 0.31
NVANVV | -0.013 ± 1.2
ILQFFDILSIYVCGWEHEL | 6.273 ± 0.053
GMCIRNRMRDNVNSLSSACD | 0.362 ± 1.4
KVFRLILGGVSNKYT | 0.228 ± 0.64
YELAMECYVSWVLLYVA | 0.362 ± 0.32
GNWASIWPLGFELLSYICQE | -0.866 ± 0.49
YKFYVTTLGFYDWCPFPVER | 0.831 ± 0.42
EDALRIFRKETDPDL | 0.681 ± 0.29
LNCGHYQIASGF | 0.393 ± 0.72
RVVMLCLVCLFGVRGS | 0.827 ± 0.52
SYYMYLN | -0.19 ± 0.26
MTDMVVSCCMPAEVQRRSGA | 0.009 ± 1.1
SVVTFT | 0.575 ± 0.49
VLGMPSLRILYITCCSDMVC | 6.37 ± 0.046
LHWFQLMANFI | -0.069 ± 0.28
FTMYKCMCSMGRRNSAGGAS | -0.325 ± 0.98
SGKYAFLFLVYCTGVLMKCW | -1.17 ± 1.7
AGAVLLNVMLCARLQRSEYY | 2.17 ± 0.14
MMCGNLY | 0.625 ± 0.7
NLASNVRESVGSGIYLMNIS | 1.97 ± 0.6
GSCDYRFYNQLGEWNGYRMA | -0.348 ± 0.49
TLRYKNT | 0.371 ± 0.76

Reference: the supplement of paper PMC12042874
